Measured values as given in ChEMBL document CHEMBL1157388, “Recent developments in fragment-based drug discovery” (J Med Chem, 2008).

How the values were obtained:
[1] = substrate: O=[N+]([O-])c1ccc(OP(=O)(O)O)cc1
[2] = substrate: O=P(O)(O)Oc1ccc(-c2ccccc2)cc1

B1: Receptor-type tyrosine-protein phosphatase beta (Homo sapiens), P23467 (protein)
chain: MLSHGAGLALWITLSLLQTGLAEPERCNFTLAESKASSHSVSIQWRILGSPCNFSLIYSSDTLGAALCPTFRIDNTTYGCNLQDLQAGTIYNFRIISLDEERTVVLQTDPLPPARFGVSKEKTTSTSLHVWWTPSSGKVTSYEVQLFDENNQKIQGVQIQESTSWNEYTFFNLTAGSKYNIAITAVSGGKRSFSVYTNGSTVPSPVKDIGISTKANSLLISWSHGSGNVERYRLMLMDKGILVHGGVVDKHATSYAFHGLTPGYLYNLTVMTEAAGLQNYRWKLVRTAPMEVSNLKVTNDGSLTSLKVKWQRPPGNVDSYNITLSHKGTIKESRVLAPWITETHFKELVPGRLYQVTVSCVSGELSAQKMAVGRTFPDKVANLEANNNGRMRSLVVSWSPPAGDWEQYRILLFNDSVVLLNITVGKEETQYVMDDTGLVPGRQYEVEVIVESGNLKNSERCQGRTVPLAVLQLRVKHANETSLSIMWQTPVAEWEKYIISLADRDLLLIHKSLSKDAKEFTFTDLVPGRKYMATVTSISGDLKNSSSVKGRTVPAQVTDLHVANQGMTSSLFTNWTQAQGDVEFYQVLLIHENVVIKNESISSETSRYSFHSLKSGSLYSVVVTTVSGGISSRQVVVEGRTVPSSVSGVTVNNSGRNDYLSVSWLLAPGDVDNYEVTLSHDGKVVQSLVIAKSVRECSFSSLTPGRLYTVTITTRSGKYENHSFSQERTVPDKVQGVSVSNSARSDYLRVSWVHATGDFDHYEVTIKNKNNFIQTKSIPKSENECVFVQLVPGRLYSVTVTTKSGQYEANEQGNGRTIPEPVKDLTLRNRSTEDLHVTWSGANGDVDQYEIQLLFNDMKVFPPFHLVNTATEYRFTSLTPGRQYKILVLTISGDVQQSAFIEGFTVPSAVKNIHISPNGATDSLTVNWTPGGGDVDSYTVSAFRHSQKVDSQTIPKHVFEHTFHRLEAGEQYQIMIASVSGSLKNQINVVGRTVPASVQGVIADNAYSSYSLIVSWQKAAGVAERYDILLLTENGILLRNTSEPATTKQHKFEDLTPGKKYKIQILTVSGGLFSKEAQTEGRTVPAAVTDLRITENSTRHLSFRWTASEGELSWYNIFLYNPDGNLQERAQVDPLVQSFSFQNLLQGRMYKMVIVTHSGELSNESFIFGRTVPASVSHLRGSNRNTTDSLWFNWSPASGDFDFYELILYNPNGTKKENWKDKDLTEWRFQGLVPGRKYVLWVVTHSGDLSNKVTAESRTAPSPPSLMSFADIANTSLAITWKGPPDWTDYNDFELQWLPRDALTVFNPYNNRKSEGRIVYGLRPGRSYQFNVKTVSGDSWKTYSKPIFGSVRTKPDKIQNLHCRPQNSTAIACSWIPPDSDFDGYSIECRKMDTQEVEFSRKLEKEKSLLNIMMLVPHKRYLVSIKVQSAGMTSEVVEDSTITMIDRPPPPPPHIRVNEKDVLISKSSINFTVNCSWFSDTNGAVKYFTVVVREADGSDELKPEQQHPLPSYLEYRHNASIRVYQTNYFASKCAENPNSNSKSFNIKLGAEMESLGGKCDPTQQKFCDGPLKPHTAYRISIRAFTQLFDEDLKEFTKPLYSDTFFSLPITTESEPLFGAIEGVSAGLFLIGMLVAVVALLICRQKVSHGRERPSARLSIRRDRPLSVHLNLGQKGNRKTSCPIKINQFEGHFMKLQADSNYLLSKEYEELKDVGRNQSCDIALLPENRGKNRYNNILPYDATRVKLSNVDDDPCSDYINASYIPGNNFRREYIVTQGPLPGTKDDFWKMVWEQNVHNIVMVTQCVEKGRVKCDHYWPADQDSLYYGDLILQMLSESVLPEWTIREFKICGEEQLDAHRLIRHFHYTVWPDHGVPETTQSLIQFVRTVRDYINRSPGAGPTVVHCSAGVGRTGTFIALDRILQQLDSKDSVDIYGAVHDLRLHRVHMVQTECQYVYLHQCVRDVLRARKLRSEQENPLFPIYENVNPEYHRDPVYSRH
Km [1]: 1340 µM | Km [2]: 86 µM
